# Experiment: soluble on expression in E. coli; label from the status in PepcDB or PDB records
row,Sequence,soluble on expression in E. coli
1,MKILLYFEGEKILAKSGIGRALDHQKRALSEVGIEYTLDADCSDYDILHINTYGVNSHRMVRKARKLGKKVIYHAHSTEEDFRNSFIGSNQLAPLVKKYLISLYSKADHLITPTPYSKTLLEGYGIKVPISAISNGIDLSRFYPSEEKEQKFREYFKIDEEKKVIICVGLFFERKGITDFIEVARQLPEYQFIWFGDTPMYSIPKNIRQLVKEDHPENVIFPGYIKGDVIEGAYAAANLFFFPSREETEGIVVLEALASQQQVLVRDIPVYQGWLVANENCYMGHSIEEFKKYIEGLLEGKIPSTREAGYQVAEQRSIKQIGYELKEVYETVLS,not soluble
2,MGSDKIHHHHHHMTSKINKIVNGPIPDSFLFDESKRLDSLKFDGTNLEVLDQLLLPHEFKYIPVEGVSDAFAVIKSMQVRGAPLIAVVGSLGLLLEIQKASELDSESIIQKINFLISSRPTAVDLRNSLNGLKPILESQDYSDVVKLEKCRSYLLNVYTDEKLQNRILVWNAYQELLSAFPDKEKLTVMTICNTGSLATISWGTALGVIRALHSENRLKLVYVLETRPYNQGIRLTSIELLHGEVPFKLITDSMAAWAMKNHQVDCVLTGADNVARNGDTANKIGTYMLAVLCKHHNINFYPVVPFTTINKNIATGEEIKIEERPSAEMLRVNGVLIGNSECPVWNPAFDVTPAHLITKILTDFGNWPPEMLEQQIPK,not soluble
3,MTTARWVIDKHLQNFHILCKFAGILKTNSFISVEDKAKLSEKLEKLDLYHRRNTGKSLDATTHKIKELSFYMFGYRDVCGQVTQKFLFSPLGNLFLKHLDNNEYIQKIFLTMLWAIPFPHPYIKTDESIQLYPMRLIFKLLSDERLDCKLFSYEYIYLISFVKSADQNSYEKLVQDILVLRTCAEVKIKHQLTAENSRSHAYVNAAHEWESYFSKTLTDAGVLQKTDGKIICRLKHGKTETYRKVTSSEFSIPKQLQEFVKKLQSAYSFSEMPLNLNDSDRLKIDVIKEIYSFYPKELLEEIGELKDEAAYELLHLPRLIEQYADNNNGTEAYLFEDVLEMGFNMFYNVEAKKIGGPGNTDLECLYITQKRKFAVEAKSTKNKLSGINSGRLEDHKNKIKAIYTIVVTPRYVPAVLSDIRNCPIVIIRANTFAEFLYNCLINRSSIPEIDYRYFDEIIIKNLGKDISSEISNLTMQQFASNTTMEAYST,not soluble
4,MTTMTIKNAMVLAAGLGTRMRPITDTIPKPLVKIAGKPMIDYALDALVEAGAETIVVNVHHHAEQMISHLGHRTDAEILISDERTQLMNSGGGLAKGLKLLKPGPVFVMNADLFWIGERLNAVSNLRKLAQFLDPARMDMALLCVDMDRTTGHNGKRDFNLAGEGKLTRYRDGDANPVVYAGAIAMDSRLLDDAPADAFNLNIYFDRAIEKDRLFGLSLDGHWITVGTPDAIDDAESIIRQFREKRFALEHHHHHH,not soluble
5,MKPSTSKTTHSPPPEEPTAPFVNDNLPNPEDEPTIGDLNAFHSGEELHRQRSELARANYEKARPEMIANQRAVTAHLFNRYTEDEERKRVEQQKNKEAMNASTSAPTSSRNGGQSVENRKRRNDVVVAPPTSEEEWKRAQQQHWMGQQQPQMQFQMQQQYHSQQQQYIMMQQQHHHMTGMQQIHHQMPSTSSADSIRSVPTPASSMHQPSPAEMRNGCGMSRNATMDMTCSPMSGGQPIVDENNLAVPEGEWFDKLALAVAEQYNVDTILGPDTYDTFLAELDFSSSESPTKQSPMEMNGDRMPSTAPPPAQNPQHIAQLQQQQNKMRLMQQQQQEMQRIEQQRRQQIMQQQQQQQQQEHQRQQMLLQQQQQQQQMQQHHQMNGGGQFATQAHQQAAYMQQMQRMEQIRHQQQQAQQHQQAQQQHQQQAQHHQMGYGIPNGYPQQMHMHPPAYGAHHMPQPTAFANIN,not soluble
6,SSGHIEGRHMNKQATEILNEYFYSHLSNPYPSEEAKEELAKKCGITVSQVSNWFGNKRIRYKKN,soluble
7,MGSDKIHHHHHHDANGVKIGVITDMSGSYADLSGKGSVLAAQMAVEEFGGKALGKPVTVLSADHQNKADIASSLARRWFDTDGVDMVIDFPNSSTALAVQEVAKQKQKIDIVSTGGAMALTNQNCSPTGFHWAWDTYSVSYPLVKRMIDQGRNSWYYITVDYAFGQSLEADFRKAVDVSGGKNVGSTKHPLNASDFSSPVVAASASKANVVVLANAGNDMINGVKAAGEFGLVKAGQTVITPSTFITDIKSLGLNTAQGLTYVDPFRLDLDEKSKDFVERYYKRHKAYPTHGQIGVYSGVLHYLKAVEAAKTVDGPAVADKMRALPVNDAFVHNGKVRADGRMVHDMYLAQAKTPAESKGPWDLVKYIATIPGDEAFRPLSASECALVKK,not soluble
8,MGSMDQSIAVKSPLTYAEALANTIMNTYTVEELPPANRWHYHQGVFLCGVLRLWEATGEKRYFEYAKAYADLLIDDNGNLLFRRDELDAIQAGLILFPLYEQTKDERYVKAAKRLRSLYGTLNRTSEGGFWHKDGYPYQMWLDGLYMGGPFALKYANLKQETELFDQVVLQESLMRKHTKDAKTGLFYHAWDEAKKMPWANEETGCSPEFWARSIGWYVMSLADMIEELPKKHPNRHVWKNTLQDMIKSICRYQDKETGLWYQIVDKGDRSDNWLESSGSCLYMYAIAKGINKGYLDRAYETTLLKAYQGLIQHKTETSEDGAFLVKDICVGTSAGFYDYYVSRERSTNDLHGAGAFILAMTELEPLFRSAGK,soluble
9,GKRLYNVKQSALSIRQIDLQRRHIEQSIRMGIKNQNDRLRTCMQRFVASEEAVRSAEKGYQIAEKRYQTGEGTLVELNDADVALLQARLNYNQAIFDFMTAKAELDKMNGMGIPEQ,not soluble
10,MNKLSRTDEENRQTEFSSSPLSDSVHSCLGFNRKKERKRRTSGDIEQTDKRKRTEERPSDKITFASNVFDNLARVTAERDNPEKLSKYKNIPGVGTRENIDEGISDINQPSSKSSGVKSKYVEVMSLFQKSIQKFSIMNLDYMYTFDWNHYSKKNIQYVVFTKVCQSHAPGHFVEMLKEDCSCRDCGSADLAVKVRLTVPLDLSDIPIPCSEDIQIHVSFLADDLLERHISSNVNRSSNRDDLDFSRRTCEKMYDLYQKMMRGQSSRMYTEWFDKCKIFVKNFLFSKSLHLYHGNVIRRKIEESQTLNKRRCFIFAQIFDLE,not soluble
11,MKIGVFDSGVGGLSVLKSLYEARLFDEIIYYGDTARVPYGVKDKDTIIKFCLEALDFFEQFQIDMLIIACNTASAYALDALRAKAHFPVYGVIDAGVEATIKALHDKNKEILVIATKATIKSEEYQKRLLSQGYTNINALATGLFVPMVEEGIFEGDFLQSAMEYYFKNITTPDALILACTHFPLLGRSLSKYFGDKTKLIHSGDAIVEFLKERENIDLKNHKAKLHFYASSDVESLKNTAKIWLNLLRK,not soluble
12,MLNIDNIQSLIDNGEGYNVEFKVRVPSKVRELTEEICAFANADGGYLLIGVDDNGQVVDTNLENDKRSAIQGSISEISPTLHCELYSVNLGDKTVWVIDVPSSKDKPYIFSGSIYVREGANSQKLRTAEEIRSFFQECNKIYFDHIPCHWFNIYTDADAQMIKDFRTEAKLSPSTPRQTNILEHHHHHH,soluble
13,MKEYNYIFGPIPSRRMGNSLGISSIEKRSCTYSCVYCQLGRTKNLMKEPKKFFKTEDILEEFKEYLKEDVDIDVVTVVGEGEPTLSDDLEELILGLKAITDKPVAVITNGSMLVYEKVRKALKAADIVLPSLDAGDEETFRKINRPNAKIDFNKITEALVQFSKEYNGELWMETMIVKGFNDKTEELYAIRKILDRIDYDRLYINTPVRPPAESYVEEPSKEKLDEVIRILRGTSIQMLSSGTFFSEITDDFEAIKSIISRHPMNKFEVESFLNSRKCRDKEEVLRKLKNHADIDVVSYKNYTTYRLK,not soluble
14,MSLKNLTIKENQPAIYITNLGKYTEGEHMGQWLNVPATKEQFNVVLKNIGVDGVQYEEYFLTDWENIGGISQFSNIERVNNMAKIQIAINEKLYNFFGADQEITYFNDDKYKVMEILNDYAKEQADELTTDEIIENIESMRIFAQDQYNSCIVNFANYLIDELEFINFKAIEKIDQKVVNYFDFEKFGHDKLIELNANSDVIIGTYEVGKLNDTIIIVTLFEGHHHHHH,soluble
15,MSLIIQVSPAGSMDLLSQLEVERLKKTASSDLYQLYRNCSLAVLNSGSHTDNSKELLDKYKNFDITVMRRERGIKLELANPPEHAFVDGQIIKGIQEHLFSVLRDIVYVNMHLADSQRLNLTNATHITNLVFGILRNAGALIPGATPNLVVCWGGHSINEVEYQYTREVGHELGLRELNICTGCGPGAMEGPMKGAAVGHAKQRYSEYRYLGLTEPSIIAAEPPNPIVNELVIMPDIEKRLEAFVRMAHGIIIFPGGPGTAEELLYILGIMMHPENADQPMPIVLTGPKQSEAYFRSLDKFITDTLGEAARKHYSIAIDNPAEAARIMSNAMPLVRQHRKDKEDAYSFNWSLKIEPEFQLPFEPNHESMANLDLHLNQRPEVLAANLRRAFSGVVAGNVKAEGIREIERHGPFEMHGDPVLMKKMDQLLNDFVAQNRMKLPGGSAYEPCYKIVTEGHHHHHH,soluble
16,MTKRGLGKGLDALLATSSLAREKQQVASLSQSMSAEGELADLSISNLKPGIYQPRKDLSPEALEELAASIQSQGIIQPIVVRHLPTGGYEIIAGERRWRAAKQAGLKQVPCLIKQVEDRGAIAMALIENIQREDLNAMEEAQALERLQNEFNLTHQQVAEVIGKSRTTVTNLLRLNQLSDDVKRLLETKQLEMGHARALLMLEGEQQVEIAQQVAKKQLTVRQTEQLVKKCLSDPSDAKNVSEDLEIQQLSQNLSEKLAAKVSIVRTPNGKSKVTISLDEPHKLELLIAKLQN,not soluble
17,MRKWQCVVCGFIYDEALGLPEEGIPAGTRWEDIPADWVCPDCGVGKIDFEMIEIA,soluble
18,MASVGIFFGSDTGNTEAIAKMIQKQLGKKLVHVQDIAKSSKEDINNFDLLLLGIPTWYYGEAQCDWDDFFPELEAIDFSTKLVAIFGCGDQEDYAEYFCDAMGTVRDIIQAKGATIVGHWPTEGYEFEASKALVDENHFVGLCIDEDRQPELTEQRVTKWVNQVYEEMCLAELED,not soluble
19,MKKVTKSIKREGSPSDEEYTLEEDPIEFELEKMERGSSNGESEEESQRDQKQADSIIDDMVEQNDQEQEAAGEQDVERENDLRKMYELSLLPPAAIAAQIQQMEKEIYELSQWEARELIRSKHLRIFGNCRRRANKLEHHHHHHH,not soluble
20,MSHTSNFTRNFHCRSSSNKRSESEKSPSFSKKRRRARALDPDEFIPPVEGPDVQKIDSETSRKCHSIKGFNVNKDGSVRRLEDNSKYEHNKSSRQKRSEAAPLENSEGKSTKSRKLSSPSKKSNKKSISKKSDRSKVSKVKRSPKTDKELEKKPSSIYERKDVDGHDDLKVPNMRSRKHSENSKNLFDYFFWFSLQTSKMKSLNYIEMLSNGDIKAPISAVFCPTRGSSTAPNCFAIIGVWRRRKKRSVSKLIKIGFSIPQSMEILTKKGQLFPNLITRQIPMEIRAVNFAHLHFSHRLVDFASGDDVLCDRIQHTIHVQS,not soluble
21,MNIKRITTEADLHEALKIRRGVFIEEQHVSEADEFDEFDTLQEQCQHILVYHENQPVGTGRARIVGHTAKLERICILKPYRKYGLGKIIVSGLEEIMKEKGLTSYKLHGQTQAAGFYQKLGYQISSQEFMEDGIPHVLMTKEISRNITLEHHHHHH,not soluble
